Measured values taken from PMC6958441, “Role of the Metal Center in the Modulation of the Aggregation Process of Amyloid Model Systems by Square Planar Complexes Bearing 2-(2′-pyridyl)benzimidazole Ligands” (Pharmaceuticals, 2019).

Molecular target: the molecule itself
Test: ESI-MS; peptide alone (control) at 100 µM in 15 mM ammonium acetate pH 6.8, 25 °C, direct injection, Q-ToF; the dimer is also seen in the samples with the metal complexes 1-3

B1: NPM1_(264–277), fragment corresponding to the 2nd helix (residues 264–277) of the C-terminal domain of nucleophosmin 1 (peptide)
peptide: Ac-VEAKFINYVKNCFR-NH2
notes: The dimer seen by ESI-MS is held by a disulfide bridge through the single cysteine of the peptide; A species of 1874 Da (monomer adduct on the Cys) and oxidised forms were also in the sample; source: synthetic peptide, treated with HFIP, purified through RP-HPLC
Q: For B1, which “stoichiometry N” value is on record?
A: 2
